# Assay results taken from patent US20230266317A1 (published 2023).
# T1: UspA2 of M. catarrhalis Dutch isolate F10, on bacteria (Moraxella catarrhalis)
# T1 chain: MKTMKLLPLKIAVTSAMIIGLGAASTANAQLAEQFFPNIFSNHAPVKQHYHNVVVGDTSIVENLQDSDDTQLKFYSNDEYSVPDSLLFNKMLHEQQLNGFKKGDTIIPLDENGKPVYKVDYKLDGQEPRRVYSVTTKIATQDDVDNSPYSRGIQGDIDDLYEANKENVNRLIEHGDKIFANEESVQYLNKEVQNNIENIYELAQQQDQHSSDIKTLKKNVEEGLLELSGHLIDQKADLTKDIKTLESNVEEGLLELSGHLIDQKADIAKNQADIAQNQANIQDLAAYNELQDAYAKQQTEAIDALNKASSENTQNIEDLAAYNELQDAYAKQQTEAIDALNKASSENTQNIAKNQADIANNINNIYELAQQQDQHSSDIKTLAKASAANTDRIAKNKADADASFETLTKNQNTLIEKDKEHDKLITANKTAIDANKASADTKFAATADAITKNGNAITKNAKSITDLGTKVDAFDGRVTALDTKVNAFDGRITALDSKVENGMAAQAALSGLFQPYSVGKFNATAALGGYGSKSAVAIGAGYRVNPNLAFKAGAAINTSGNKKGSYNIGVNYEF
# T2: UspA2 of M. catarrhalis strain ATCC 25238 (SEQ ID NO: 1), on bacteria (Moraxella catarrhalis)
# T2 chain: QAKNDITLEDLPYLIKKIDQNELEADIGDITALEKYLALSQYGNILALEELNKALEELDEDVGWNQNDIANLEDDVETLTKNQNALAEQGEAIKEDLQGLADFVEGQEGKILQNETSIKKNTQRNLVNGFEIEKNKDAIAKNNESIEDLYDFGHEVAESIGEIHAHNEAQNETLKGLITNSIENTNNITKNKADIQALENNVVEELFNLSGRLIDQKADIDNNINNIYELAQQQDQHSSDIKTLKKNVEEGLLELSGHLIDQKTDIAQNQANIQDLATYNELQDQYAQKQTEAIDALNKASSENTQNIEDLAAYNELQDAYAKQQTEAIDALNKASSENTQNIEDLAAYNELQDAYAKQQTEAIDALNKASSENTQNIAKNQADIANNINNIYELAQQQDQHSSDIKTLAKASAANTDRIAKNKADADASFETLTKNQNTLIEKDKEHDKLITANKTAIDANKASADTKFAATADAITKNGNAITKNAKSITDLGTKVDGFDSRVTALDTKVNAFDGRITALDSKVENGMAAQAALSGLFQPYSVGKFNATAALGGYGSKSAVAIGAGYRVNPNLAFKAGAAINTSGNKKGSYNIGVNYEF
# B1: anti-UspA2 monoclonal antibody FHUSPA2/10 (antibody, V domains shown)
# VH: EVQLQQSGTVLARPGASVKMSCKASGYSFTSYWMHWVKQRPGQGLEWIGAIYPGNSDTSYNQKFKGKAKLTAVTSASTAYMELSNLTNEDSAVYSCTLLRFLDAYWGQGTLVTVSA
# VL: QIVLSQSPAILSASPGEKVTMTCRASSSVSYMHWYQQKPGSSPKPWIYATSNLASGVPARFSGSGSGTSYSLTISRVEAEDAATYYCQQWSSNPPTFGGGSKLEIK
# Legend:
# Test in all cases: cell-based or functional assay
# [1] = molecular target: UspA2H of M. catarrhalis AERIS isolate 415, on bacteria (Moraxella catarrhalis)
# [2] = molecular target: UspA2H of M. catarrhalis AERIS isolate 268, on bacteria (Moraxella catarrhalis)
# [3] = molecular target: UspA2H of M. catarrhalis AERIS isolate 240, on bacteria (Moraxella catarrhalis)
# [4] = molecular target: UspA2H of M. catarrhalis AERIS isolate 193, on bacteria (Moraxella catarrhalis)
# [5] = molecular target: T1, UspA2 of M. catarrhalis Dutch isolate …
# [6] = molecular target: UspA2 of M. catarrhalis Denmark isolate BBH18 (wild type), on bacteria (Moraxella catarrhalis)
# [7] = molecular target: T2, UspA2 of M. catarrhalis strain ATCC …
# [8] = molecular target: UspA1 of M. catarrhalis strain ATCC 43617, on bacteria (Moraxella catarrhalis)
# [9] = molecular target: UspA2H of M. catarrhalis AERIS isolate 296, on bacteria (Moraxella catarrhalis)
binder,measurement,setting,value
B1,bactericidal activity (mid-point titer),[1],256000 mid-point titer (reciprocal dilution inducing 50% of killing)
same,bactericidal activity (mid-point titer),[2],> 384000 mid-point titer (reciprocal dilution inducing 50% of killing)
same,bactericidal activity (mid-point titer),[3],> 25600 mid-point titer (reciprocal dilution inducing 50% of killing)
same,bactericidal activity (mid-point titer),[4],> 640000 mid-point titer (reciprocal dilution inducing 50% of killing)
same,bactericidal activity (mid-point titer),[5],528000 mid-point titer (reciprocal dilution inducing 50% of killing)
same,bactericidal activity (mid-point titer),[6],386000 mid-point titer (reciprocal dilution inducing 50% of killing)
same,bactericidal activity (mid-point titer),[7],1.88e+06 mid-point titer (reciprocal dilution inducing 50% of killing)
same,bactericidal activity (mid-point titer),[8],< 100 mid-point titer (reciprocal dilution inducing 50% of killing)
same,bactericidal activity (mid-point titer),[9],114000 mid-point titer (reciprocal dilution inducing 50% of killing)
